Measurements published in article PMC2970552, “Structural Studies of the Tandem Tudor Domains of Fragile X Mental Retardation Related Proteins FXR1 and FXR2” (PLoS ONE, 2010).
One block for each molecule: values may come before it. Where no end group is shown, it is not given here. Me3 = trimethyl-lysine (Kme3); Me2 = dimethyl-lysine (Kme2)

Experiments:
[1] = biological target: FXR2 Tudor domains (Homo sapiens, UniProt P51116); assay: Fluorescence polarization binding of histone peptides to FXR2 tandem Tudor domains; conditions: bound printed in mM in the cell, fluoresceinated peptide 100 nM, 20 mM Tris-Cl pH 8.0, 50 mM NaCl, 1 mM DTT, 30 min room temperature
[2] = biological target: FXR1 Tudor domains (Homo sapiens, UniProt P51114); assay: Fluorescence polarization binding of histone peptides to FXR1 tandem Tudor domains; conditions: bound printed in mM in the cell, fluoresceinated peptide 100 nM, 20 mM Tris-Cl pH 8.0, 50 mM NaCl, 1 mM DTT, 30 min room temperature
[3] = biological target: T1, FXR1 tandem Tudor domains (amino acids 2 to 132 of Fragile X Mental Retardation Syndrome-related Protein 1) (UniProt P51114 2-132); assay: fluorescence polarisation; fluoresceinated peptide at 100 nM; FXR1 (stock 1.03 mM) or FXR2 (stock 2.4 mM) in serial twofold dilutions from 1/2 to 1/1024; 20 mM Tris-Cl pH 8.0, 50 mM NaCl, 1 mM DTT; room temperature, 30 minutes; conditions: both partners purified
T1 construct: Fragile X Mental Retardation Syndrome-related Protein 1 (FXR1), amino acids 2 to 132, tandem Tudor domains; residues 4 to 122 seen in the crystal structure; Cloned in pET-28a-MHL as His6-TEV-FXR1; The methods describe expression in minimal media with selenomethionine; also called FXR1 Tudor domains; NLS of FXR1; source: E. coli BL21 derivative with pRARE, purified (Ni-NTA, Superdex 75); not …
T1 sequence (P51114 2-132): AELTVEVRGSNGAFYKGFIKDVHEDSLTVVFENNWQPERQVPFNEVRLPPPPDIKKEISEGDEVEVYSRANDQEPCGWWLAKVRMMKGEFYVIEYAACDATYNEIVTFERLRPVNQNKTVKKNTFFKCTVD

[4] = biological target: T2, FXR2 tandem Tudor domains (amino acids 14 to 137 of Fragile X Mental Retardation Syndrome-related Protein 2) (UniProt P51116 14-137); assay: as above; conditions: both partners purified
T2 construct: Fragile X Mental Retardation Syndrome-related Protein 2 (FXR2), amino acids 14 to 137, tandem Tudor domains; residues 13 to 136 reported for the crystal structure; Cloned in pET-28a-MHL as His6-TEV-FXR2; the purification tag was not removed from FXR2; The methods describe expression in minimal media with selenomethionine; also called FXR2 Tudor domain; NLS of FXR2; source: E. coli BL21 derivative …
T2 sequence (P51116 14-137): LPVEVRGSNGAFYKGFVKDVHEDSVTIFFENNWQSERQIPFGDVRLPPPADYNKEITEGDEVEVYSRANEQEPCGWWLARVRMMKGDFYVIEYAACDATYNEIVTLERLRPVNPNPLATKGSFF

Molecule: C[C@H](N)C(=O)N[C@@H](CCCNC(=N)N)C(=O)N[C@H](C(=O)N[C@@H](CCCC[N+](C)(C)C)C(=O)N[C@@H](CCC(N)=O)C(=O)N[C@H](C(=O)N[C@@H](C)C(=O)N[C@@H](CCCNC(=N)N)C(=O)N[C@@H](CCCCN)C(=O)N[C@@H](CO)C(=O)N[C@H](C(=O)O)[C@@H](C)O)[C@@H](C)O)[C@@H](C)O [H3K4me3]
- Kd [1]: > 1 mM

B2: H4K20me3 peptide, fluoresceinated (peptide)
peptide: GGAKRHRK(Me3)VLRD
modifications: also: fluorescein, position not given here
notes: histone H4 tail peptide, K20 trimethylated; source: synthetic peptide (Tufts University Core Services)
- Kd [3]: 692 ± 113 µM
- Kd [4]: 448 ± 19 µM

B3: H4K20 peptide (unmethylated histone H4 peptide) (peptide)
peptide: GGAKRHRKVLRDN
modifications: also: fluorescein, position not given here
notes: histone H4 tail peptide around K20, unmethylated; also called H4K20Me0; source: synthetic peptide (Tufts University Core Services)
- Kd [4]: 1060 ± 63 µM

B4: H4K20me2 peptide (peptide)
peptide: GGAKRHRK(Me2)VLRD
notes: histone H4 tail peptide, K20 dimethylated; source: synthetic peptide (Tufts University Core Services)
- Kd [4]: 633 ± 30 µM

Results, then the molecule that gave them:

- Kd [2]: > 1 mM
Molecule: CC(C)C[C@H](NC(=O)[C@@H](NC(=O)[C@H](CCCCN)NC(=O)[C@H](CCCNC(=N)N)NC(=O)[C@H](Cc1c[nH]cn1)NC(=O)[C@H](CCCNC(=N)N)NC(=O)[C@H](CCCCN)NC(=O)[C@H](C)NC(=O)CNC(=O)CN)C(C)C)C(=O)N[C@@H](CCCNC(=N)N)C(=O)N[C@@H](CC(=O)O)C(=O)N[C@@H](CC(N)=O)C(=O)O [H4K20]

- Kd [3]: 660 ± 121 µM
B1: H3K4me3 peptide (peptide)
peptide: ARTK(Me3)QTARKST
modifications: also: fluorescein, position not given here
notes: histone H3 tail peptide, K4 trimethylated; source: synthetic peptide (Tufts University Core Services)
